Results published in patent US20110263454A1, “Methods of Identifying Functional Characteristics of Promoters, Transcription Modifying Proteins and Transcription Modulating Agents” (Salk Institute for Biological Studies, priority 2008, published 2011).

Tests used:
[1] = system: mCAR promoter; assay: NHR-promoter luciferase screen, mCAR promoter; assay type: cell-based, mouse; conditions: for luciferase activity normalized to lacZ activity and to a control, mCAR: mCAR promoter-luciferase, CV-1 cells, NHR +/- ligand, control = 1.00; for Luc. act., normalized to lacZ / Normalized Luc. act., normalized to control: mCAR promoter, HR/ligand component
How it was run: (§1)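 CV-1 cells were co-transfected with 50 ng NHR (homodimer or NHR/RXR heterodimer), 100 ng promoter-luciferase construct and 50 ng LacZ. Luciferase was normalized to LacZ and to a no-NHR/no-ligand control.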

[2] = system: hPPARg2 promoter; assay: NHR-promoter luciferase screen, hPPARg2 promoter; assay type: cell-based, human; conditions: for Luc. act., normalized to lacZ / Normalized Luc. act., normalized to control: PPARG2 promoter, hormone receptor with or without its ligand; for Normalized Luc. act., normalized to control: relative to control; for Results of assays of transcription factor (+/- ligand) with hPPARg2: Table 6d, luciferase activity relative to control (control = 1.00)
How it was run: as §1

[3] = system: mDio2 promoter; assay: NHR-promoter luciferase screen, mDio2 promoter; assay type: cell-based, mouse; conditions: for Luc. act., normalized to lacZ / Normalized Luc. act., normalized to control: Dio2, HR component without or with its ligand; for mDio2 promoter reporter activity: transcription factor +/- ligand, control = 1.00
How it was run: as §1

[4] = system: mUCP2 promoter; assay: NHR-promoter luciferase screen, mUCP2 promoter; assay type: cell-based, mouse; conditions: for Luc. act., normalized to lacZ / Normalized Luc. act., normalized to control: mUCP2 promoter reporter, co-transfected HR, with or without its ligand; for Normalized Luc. act., normalized to control: relative to control; for luciferase activity normalized to lacZ activity and to a control, mUCP2: mUCP2 promoter-luciferase, CV-1 cells, NHR +/- ligand, control = 1.00
How it was run: as §1

[5] = system: mABCA1 promoter; assay: NHR-promoter luciferase screen, mABCA1 promoter; assay type: cell-based, mouse; conditions: for Luc. act., normalized to lacZ / Normalized Luc. act., normalized to control: ABCA1 promoter, hormone receptor with or without its ligand; for Normalized Luc. act., normalized to control: relative to control; for mABCA1 promoter reporter activity: transcription factor +/- ligand, control = 1.00
How it was run: as §1

[6] = system: hIFNg promoter; assay: NHR-promoter luciferase screen, hIFNg promoter; assay type: cell-based, human; conditions: for Luc. act., normalized to lacZ / Normalized Luc. act., normalized to control: IFNg promoter, HR component without or with ligand; for hIFNg promoter reporter activity: transcription factor +/- ligand, control = 1.00
How it was run: as §1

B1: RXRg: Retinoic X Receptor γ (NR2B3), cDNA driver (protein, UniProt P48443 1-463, looked up)
Retinoic acid receptor …: MYGNYSHFMKFPAGYGGSPGHTGSTSMSPSAALSTGKPMDSHPSYTDTPVSAPRTLSAVGTPLNALGSPYRVITSAMGPPSGALAAPPGINLVAPPSSQLNVVNSVSSSEDIKPLPGLPGIGNMNYPSTSPGSLVKHICAICGDRSSGKHYGVYSCEGCKGFFKRTIRKDLIYTCRDNKDCLIDKRQRNRCQYCRYQKCLVMGMKREAVQEERQRSRERAESEAECATSGHEDMPVERILEAELAVEPKTESYGDMNMENSTNDPVTNICHAADKQLFTLVEWAKRIPHFSDLTLEDQVILLRAGWNELLIASFSHRSVSVQDGILLATGLHVHRSSAHSAGVGSIFDRVLTELVSKMKDMQMDKSELGCLRAIVLFNPDAKGLSNPSEVETLREKVYATLEAYTKQKYPEQPGRFAKLLLRLPALRSIGLKCLEHLFFFKLIGDTPIDTFLMEMLETPLQIT
- luciferase activity normalized to lacZ activity and to a control, mCAR [1]: 1.25
- Luc. act., normalized to lacZ [1]: 47.5
- Normalized Luc. act., normalized to control [1]: 1.2
- Luc. act., normalized to lacZ [2]: 1.5
- Normalized Luc. act., normalized to control [2]: 0.7
- Results of assays of transcription factor (+/- ligand) with hPPARg2 [2]: 0.74
- Luc. act., normalized to lacZ [3]: 27.8
- Normalized Luc. act., normalized to control [3]: 1.8
- mDio2 promoter reporter activity [3]: 1.77
- Luc. act., normalized to lacZ [4]: 144.4
- Normalized Luc. act., normalized to control [4]: 1.3
- luciferase activity normalized to lacZ activity and to a control, mUCP2 [4]: 1.31
- Luc. act., normalized to lacZ [5]: 18.3
- Normalized Luc. act., normalized to control [5]: 3.3
- mABCA1 promoter reporter activity [5]: 3.26
- Luc. act., normalized to lacZ [6]: 15.2
- Normalized Luc. act., normalized to control [6]: 1.0
- hIFNg promoter reporter activity [6]: 0.96

B2: RORb: RAR-related Orphan Receptor β (NR1F2), cDNA driver (protein, UniProt Q92753 1-470, looked up)
Nuclear receptor ROR-beta: MCENQLKTKADATAQIEVIPCKICGDKSSGIHYGVITCEGCKGFFRRSQQNNASYSCPRQRNCLIDRTNRNRCQHCRLQKCLALGMSRDAVKFGRMSKKQRDSLYAEVQKHQQRLQEQRQQQSGEAEALARVYSSSISNGLSNLNNETSGTYANGHVIDLPKSEGYYNVDSGQPSPDQSGLDMTGIKQIKQEPIYDLTSVPNLFTYSSFNNGQLAPGITMTEIDRIAQNIIKSHLETCQYTMEELHQLAWQTHTYEEIKAYQSKSREALWQQCAIQITHAIQYVVEFAKRITGFMELCQNDQILLLKSGCLEVVLVRMCRAFNPLNNTVLFEGKYGGMQMFKALGSDDLVNEAFDFAKNLCSLQLTEEEIALFSSAVLISPDRAWLIEPRKVQKLQEKIYFALQHVIQKNHLDDETLAKLIAKIPTITAVCNLHGEKLQVFKQSHPEIVNTLFPPLYKELFNPDCATGCK
- luciferase activity normalized to lacZ activity and to a control, mCAR [1]: 1.15
- Luc. act., normalized to lacZ [1]: 43.7
- Normalized Luc. act., normalized to control [1]: 1.1
- Luc. act., normalized to lacZ [2]: 1.8
- Normalized Luc. act., normalized to control [2]: 0.9
- Results of assays of transcription factor (+/- ligand) with hPPARg2 [2]: 0.89
- Luc. act., normalized to lacZ [3]: 23.1
- Normalized Luc. act., normalized to control [3]: 1.5
- mDio2 promoter reporter activity [3]: 1.47
- Luc. act., normalized to lacZ [4]: 176.2
- Normalized Luc. act., normalized to control [4]: 1.6
- luciferase activity normalized to lacZ activity and to a control, mUCP2 [4]: 1.60
- Luc. act., normalized to lacZ [5]: 26.4
- Normalized Luc. act., normalized to control [5]: 4.7
- mABCA1 promoter reporter activity [5]: 4.69
- Luc. act., normalized to lacZ [6]: 22.2
- Normalized Luc. act., normalized to control [6]: 1.4
- hIFNg promoter reporter activity [6]: 1.40

B3: TR2: Testicular Orphan Nuclear Receptor 2 (NR2C1), cDNA driver (protein, UniProt P13056 1-603, looked up)
Nuclear receptor subfamily 2 …: MATIEEIAHQIIEQQMGEIVTEQQTGQKIQIVTALDHNTQGKQFILTNHDGSTPSKVILARQDSTPGKVFLTTPDAAGVNQLFFTTPDLSAQHLQLLTDNSPDQGPNKVFDLCVVCGDKASGRHYGAVTCEGCKGFFKRSIRKNLVYSCRGSKDCIINKHHRNRCQYCRLQRCIAFGMKQDSVQCERKPIEVSREKSSNCAASTEKIYIRKDLRSPLTATPTFVTDSESTRSTGLLDSGMFMNIHPSGVKTESAVLMTSDKAESCQGDLSTLANVVTSLANLGKTKDLSQNSNEMSMIESLSNDDTSLCEFQEMQTNGDVSRAFDTLAKALNPGESTACQSSVAGMEGSVHLITGDSSINYTEKEGPLLSDSHVAFRLTMPSPMPEYLNVHYIGESASRLLFLSMHWALSIPSFQALGQENSISLVKAYWNELFTLGLAQCWQVMNVATILATFVNCLHNSLQQDKMSTERRKLLMEHIFKLQEFCNSMVKLCIDGYEYAYLKAIVLFSPDHPSLENMEQIEKFQEKAYVEFQDYITKTYPDDTYRLSRLLLRLPALRLMNATITEELFFKGLIGNIRIDSVIPHILKMEPADYNSQIIGHSI
- luciferase activity normalized to lacZ activity and to a control, mCAR [1]: 0.81
- Luc. act., normalized to lacZ [1]: 31.0
- Normalized Luc. act., normalized to control [1]: 0.8
- Luc. act., normalized to lacZ [2]: 1.9
- Normalized Luc. act., normalized to control [2]: 1.0
- Results of assays of transcription factor (+/- ligand) with hPPARg2 [2]: 0.95
- Luc. act., normalized to lacZ [3]: 33.8
- Normalized Luc. act., normalized to control [3]: 2.2
- mDio2 promoter reporter activity [3]: 2.15
- Luc. act., normalized to lacZ [4]: 208.9
- Normalized Luc. act., normalized to control [4]: 1.9
- luciferase activity normalized to lacZ activity and to a control, mUCP2 [4]: 1.90
- Luc. act., normalized to lacZ [5]: 31.2
- Normalized Luc. act., normalized to control [5]: 5.6
- mABCA1 promoter reporter activity [5]: 5.55
- Luc. act., normalized to lacZ [6]: 13.6
- Normalized Luc. act., normalized to control [6]: 0.9
- hIFNg promoter reporter activity [6]: 0.85

B4: HNF4g: Hepatocyte Nuclear Factor γ (NR2A2), cDNA driver (protein, UniProt Q14541 1-408, looked up)
Hepatocyte nuclear factor …: MNTTDNGVNCLCAICGDRATGKHYGASSCDGCKGFFRRSIRKSHVYSCRFSRQCVVDKDKRNQCRYCRLRKCFRAGMKKEAVQNERDRISTRRSTFDGSNIPSINTLAQAEVRSRQISVSSPGSSTDINVKKIASIGDVCESMKQQLLVLVEWAKYIPAFCELPLDDQVALLRAHAGEHLLLGATKRSMMYKDILLLGNNYVIHRNSCEVEISRVANRVLDELVRPFQEIQIDDNEYACLKAIVFFDPDAKGLSDPVKIKNMRFQVQIGLEDYINDRQYDSRGRFGELLLLLPTLQSITWQMIEQIQFVKLFGMVKIDNLLQEMLLGGASNDGSHLHHPMHPHLSQDPLTGQTILLGPMSTLVHADQISTPETPLPSPPQGSGQEQYKIAANQASVISHQHLSKQKQL
- luciferase activity normalized to lacZ activity and to a control, mCAR [1]: 1.43
- Luc. act., normalized to lacZ [1]: 54.5
- Normalized Luc. act., normalized to control [1]: 1.4
- Luc. act., normalized to lacZ [2]: 1.5
- Normalized Luc. act., normalized to control [2]: 0.8
- Results of assays of transcription factor (+/- ligand) with hPPARg2 [2]: 0.76
- Luc. act., normalized to lacZ [3]: 18.0
- Normalized Luc. act., normalized to control [3]: 1.1
- mDio2 promoter reporter activity [3]: 1.14
- Luc. act., normalized to lacZ [4]: 114.8
- Normalized Luc. act., normalized to control [4]: 1.0
- luciferase activity normalized to lacZ activity and to a control, mUCP2 [4]: 1.04
- Luc. act., normalized to lacZ [5]: 11.3
- Normalized Luc. act., normalized to control [5]: 2.0
- mABCA1 promoter reporter activity [5]: 2.01
- Luc. act., normalized to lacZ [6]: 13.3
- Normalized Luc. act., normalized to control [6]: 0.8
- hIFNg promoter reporter activity [6]: 0.83

B5: TR4: Testicular Orphan Nuclear Receptor 4 (NR2C2), cDNA driver (protein, UniProt P49116 1-596, looked up)
Nuclear receptor subfamily 2 …: MTSPSPRIQIISTDSAVASPQRIQIVTDQQTGQKIQIVTAVDASGSPKQQFILTSPDGAGTGKVILASPETSSAKQLIFTTSDNLVPGRIQIVTDSASVERLLGKTDVQRPQVVEYCVVCGDKASGRHYGAVSCEGCKGFFKRSVRKNLTYSCRSNQDCIINKHHRNRCQFCRLKKCLEMGMKMESVQSERKPFDVQREKPSNCAASTEKIYIRKDLRSPLIATPTFVADKDGARQTGLLDPGMLVNIQQPLIREDGTVLLATDSKAETSQGALGTLANVVTSLANLSESLNNGDTSEIQPEDQSASEITRAFDTLAKALNTTDSSSSPSLADGIDTSGGGSIHVISRDQSTPIIEVEGPLLSDTHVTFKLTMPSPMPEYLNVHYICESASRLLFLSMHWARSIPAFQALGQDCNTSLVRACWNELFTLGLAQCAQVMSLSTILAAIVNHLQNSIQEDKLSGDRIKQVMEHIWKLQEFCNSMAKLDIDGYEYAYLKAIVLFSPDHPGLTSTSQIEKFQEKAQMELQDYVQKTYSEDTYRLARILVRLPALRLMSSNITEELFFTGLIGNVSIDSIIPYILKMETAEYNGQITGASL
- luciferase activity normalized to lacZ activity and to a control, mCAR [1]: 2.52
- Luc. act., normalized to lacZ [1]: 96.2
- Normalized Luc. act., normalized to control [1]: 2.5
- Luc. act., normalized to lacZ [2]: 3.3
- Normalized Luc. act., normalized to control [2]: 1.6
- Results of assays of transcription factor (+/- ligand) with hPPARg2 [2]: 1.65
- Luc. act., normalized to lacZ [3]: 51.9
- Normalized Luc. act., normalized to control [3]: 3.3
- mDio2 promoter reporter activity [3]: 3.31
- Luc. act., normalized to lacZ [4]: 199.0
- Normalized Luc. act., normalized to control [4]: 1.8
- luciferase activity normalized to lacZ activity and to a control, mUCP2 [4]: 1.81
- Luc. act., normalized to lacZ [5]: 36.4
- Normalized Luc. act., normalized to control [5]: 6.5
- mABCA1 promoter reporter activity [5]: 6.49
- Luc. act., normalized to lacZ [6]: 42.5
- Normalized Luc. act., normalized to control [6]: 2.7
- hIFNg promoter reporter activity [6]: 2.67
